# Measurements reported in US20160311918A1, “Anti-Ron Monoclonal Antibodies as a Cytotoxic Drug Delivery System for Targeted Cancer Therapy” (TEXAS TECH UNIVERSITY SYSTEM, priority 2013, published 2016).
# Assays:
# [1] = biological target: T1, RON-β chain (mature RON) (Homo sapiens, UniProt Q04912); assay: Western blot of RON expression in CRC cells; assay type: cell-based; conditions: 36 h after treatment, 5 μg/ml
# T1 construct: We selected CRC cell lines LoVo, DLD1, HT29, HCT116, and SW620 expressing variable levels of RON as the cellular model; host or cells: HCT116, HT29, SW620
# T1 sequence (Q04912 310-1400 limits assumed): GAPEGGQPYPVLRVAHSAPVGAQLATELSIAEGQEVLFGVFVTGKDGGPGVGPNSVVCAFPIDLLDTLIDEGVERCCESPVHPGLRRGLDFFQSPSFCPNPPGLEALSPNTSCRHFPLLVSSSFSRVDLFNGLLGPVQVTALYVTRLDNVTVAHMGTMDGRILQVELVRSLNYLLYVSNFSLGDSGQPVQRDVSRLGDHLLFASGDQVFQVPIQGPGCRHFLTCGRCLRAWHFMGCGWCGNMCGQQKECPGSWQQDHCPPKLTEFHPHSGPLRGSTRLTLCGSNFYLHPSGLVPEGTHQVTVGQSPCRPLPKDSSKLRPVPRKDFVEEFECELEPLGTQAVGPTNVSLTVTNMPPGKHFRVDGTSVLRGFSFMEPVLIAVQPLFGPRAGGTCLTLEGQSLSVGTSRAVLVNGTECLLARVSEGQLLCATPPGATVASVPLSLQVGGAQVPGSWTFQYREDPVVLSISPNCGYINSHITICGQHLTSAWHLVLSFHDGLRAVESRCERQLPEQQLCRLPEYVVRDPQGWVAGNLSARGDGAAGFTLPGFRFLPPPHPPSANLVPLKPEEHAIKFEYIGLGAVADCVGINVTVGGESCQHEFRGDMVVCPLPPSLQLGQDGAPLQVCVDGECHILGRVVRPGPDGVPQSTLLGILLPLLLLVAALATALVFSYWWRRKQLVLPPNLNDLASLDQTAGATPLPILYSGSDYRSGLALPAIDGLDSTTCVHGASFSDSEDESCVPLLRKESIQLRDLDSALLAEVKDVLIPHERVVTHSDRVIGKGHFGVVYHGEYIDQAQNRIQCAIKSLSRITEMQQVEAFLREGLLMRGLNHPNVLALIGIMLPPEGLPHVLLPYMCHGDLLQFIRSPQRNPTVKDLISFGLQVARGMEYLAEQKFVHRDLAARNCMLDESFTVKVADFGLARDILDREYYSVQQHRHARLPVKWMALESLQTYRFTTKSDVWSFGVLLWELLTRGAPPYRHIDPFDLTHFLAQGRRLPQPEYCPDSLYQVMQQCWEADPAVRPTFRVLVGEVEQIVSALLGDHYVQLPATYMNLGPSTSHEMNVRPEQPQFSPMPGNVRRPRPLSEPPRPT
# T1 sequence (Q04912 25-304 limits assumed): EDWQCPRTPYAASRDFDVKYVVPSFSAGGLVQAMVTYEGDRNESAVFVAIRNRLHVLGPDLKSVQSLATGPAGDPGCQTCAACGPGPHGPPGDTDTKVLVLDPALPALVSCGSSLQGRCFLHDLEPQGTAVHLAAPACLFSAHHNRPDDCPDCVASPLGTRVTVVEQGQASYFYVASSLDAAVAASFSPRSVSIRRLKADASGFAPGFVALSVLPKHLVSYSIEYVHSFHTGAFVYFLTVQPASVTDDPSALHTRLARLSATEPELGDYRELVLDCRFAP
# [2] = biological target: RON (Homo sapiens, UniProt Q04912); assay: Immunofluorescent localization of cytoplasmic RON in HT29 cells; assay type: cell-based; conditions: 5 μg/ml, 6 h
# RON, sequence (Q04912 310-1400 limits assumed): as the sequence (Q04912 310-1400 limits assumed) above
# RON, sequence (Q04912 25-304 limits assumed): as the sequence (Q04912 25-304 limits assumed) above
# [3] = tested on: three CRC cell lines; assay: Cell viability, three CRC cell lines together; conditions: 72 h after treatment
# Procedure: Cell viability and death assays: Cell viability 72 h after Zt/g4-DM1 treatment was determined by the MTT assay (22). Viable or dead cells were determined by the trypan blue exclusion assay. A total of 900 cells were counted from three individual wells to reach the percentages of dead cells.
# [4] = tested on: HT29-Luc2 xenograft tumor; assay: HT29-luc2 mouse xenograft tumor model; assay type: in vivo; conditions: for tumor growth inhibited: five injection regimen
# Procedure: Athymic nude mice (five mice per group) were subcutaneously inoculated with 5×10^6 HCT116, HT29, and SW620 cells followed by injection of 20 mg/kg Zt/g4-DM1 through tail vein. FIG. 4A: Tumor growth from HT29-luc2 or HCT116-luc2 cells was determined by measuring average photon intensity (left panel). SW620-derived tumor growth was monitored by measuring tumor volume (FIG. 4B) (right panel). FIG. 4C: Tumor images with photon emission or caliper measurement at day 16 are presented. The scale from minimal to maximal is set at 300 to 35,000 photons per second. The percentages of inhibition were calculated from the average photon emission (for HT29 and HCT116 cells) or tumor volume (for SW620 cells). FIG. 4D: Individual tumors from different groups were weighed at day 28. The percentages of inhibition were calculated by a formula: (average tumor weight from Zt/g4-DM1 treated group/average tumor weight from control mice)×100%;
# FIGS. 5A to 5F show the evaluation of different doses of Zt/g4-DM1 on tumor growth and RON expression. FIG. 5A: Effect of multi-dose of Zt/g4-DM1 on tumor growth was tested in HT29 cell-induced tumors. Tumor-bearing mice were treated with different doses of Zt/g4-DM1 every four days for a total of five injections ( ? ). Tumor growth was determined by the average bioluminescence intensity. FIG. 5B: An IC50 value based on the average bioluminescence intensity from individual groups at day 31 was calculated using GraphPad Prism 6 software. FIG. 5C: Bioluminescence images of individual tumors from each group at day 31 are shown. The percentages of inhibition were calculated from the average photon emission. The color scale from minimal to maximal is set at 300 to 35,000 photons per second. FIG. 5D: Individual tumors from different groups were collected and weighed at day 31, 35, and 43, respectively. The percentages of inhibition were calculated as detailed in FIG. 4C. FIG. 5E: Samples of HT29 cell-derived xenograft tumors from both control and 15 mg/kg Zt/g4-DM1-treated mice at day 31 were processed for histological examination. […] FIG. 5F: Western blot analysis of RON expression in tumors samples from both control and 15 mg/kg Zt/g4-DM1-treated mice. Densitometry analysis was performed to determine the levels of RON expression;
# (§1) Mouse xenograft CRC model and anti-RON ADC treatment: All mice studies were approved by the institutional animal care committee. Female athymic nude mice at 6 weeks of age (Taconic, Cranbury, N.J.) were injected with 5×10^6 HT29-Luc2, HCT116-luc2, or SW620 cells in the subcutaneous space of the right flank as previously described (18,33). Mice were randomized into different groups (five mice per group). […] The single-dose group received a tail vein injection of 20 mg/kg Zt/g4-DM1 in 0.1 ml PBS followed by observation for 28 days. The multi-dose study was performed by treating mice with Zt/g4-DM1 at 1, 3, 7, 10, and 15 mg/kg every four days for a total of five injections. Bioluminescence from individual tumors was measured every four days using Caliper IVIS image system (PerkinElmer). Tumor volumes from SW620-derived tumors were measured according to a formula: V=pi/6×1.58×(length×width)^3/2 (18,33). Animals were euthanized when tumor volumes exceeded 2000 mm^3 or if tumors became necrotic or ulcerated through the skin.
# The inventors first determined the efficacy of a single dose of Zt/g4-DM1 at 20 mg/kg body weight on tumors derived from HCT116, HT29, and SW620 cells. Tumor growth by HCT116-luc2 and HT29-luc2 cells was measured by bioluminescence emitted from tumor cells. SW620-mediated tumors were evaluated by tumor volume (18,34).
# [5] = tested on: CRC cell-mediated tumor growth; assay: Mouse xenograft CRC models, single dose, all three lines; assay type: in vivo; conditions: single dose 20 mg/kg
# Procedure: as §1
# The inventors first determined the efficacy of a single dose of Zt/g4-DM1 at 20 mg/kg body weight on tumors derived from HCT116, HT29, and SW620 cells. Tumor growth by HCT116-luc2 and HT29-luc2 cells was measured by bioluminescence emitted from tumor cells. SW620-mediated tumors were evaluated by tumor volume (18,34). […]
# [6] = tested on: human pancreatic cancer cells; assay: PDAC cell viability in combination with chemotherapeutics; assay type: cell-based; conditions: in vitro, chemotherapeutics including gemcitabine
# Procedure: In vitro cell viability and death assays: Cell viability after treatment of Zt/g4-DM1, chemotherapeutics, and their combinations was determined by the MTT assay. Cell death was determined by the trypan blue exclusion assay.
# FIGS. 10A to 10D are graphs that show the effect of Zt/g4-DM1 on pancreatic cancer cell cycle, viability, and apoptotic death. […] FIG. 12 are graphs that show synergism between Zt/g4-DM1 and chemotherapeutics by isobolograms.
# [7] = 15 mg/kg every four days x5, day 31
molecule,measurement,setting,value
"Zt/g4-DM1: anti-RON mouse mAb Zt/g4 conjugated to maytansinoid DM1 via non-reducible thioether linkage (SMCC), DAR about 4:1 (conjugate) VH: EVQLQQSGAELVKPGASVKLSCTTSGFNIIDTYIHWVNQKPDQGLEWIGRIDPADGNRKSDPKFQVKATITVDTSSNTAYLQLSSLTSGDTAVYYCARGYGNLNAMDSWGQGTSVTVSS VL: DIQMNQSPSSLSASLGDTITITCHASQNINVWLNWYQQKPGNIPKLLIYKASNLHTGVPSRFSGSGSGTGFTLTISSLQPEDIATYYCQQGQSYPLTFGGGTKLEIK",RON-β chain detected,[1],Less than 20%
same,RON endocytosis by immunofluorescence,[2],intracellular localization of internalized RON occurred at 37 °C
same,reduction in cell viability,[3],More than 80%
same,inhibition of tumor growth,[4]; 1 mg/kg every four days x5,no inhibition of tumor growth
same,inhibition of tumor growth,[4]; 3 mg/kg every four days x5,no inhibition of tumor growth
same,inhibition by average photon emission,"[4]; 7 mg/kg every four days x5, day 19 to 43",more than 80%
same,inhibition by tumor weight,"[4]; 7 mg/kg every four days x5, day 43",Significant inhibition was still observed
same,tumor growth inhibited,[4]; 7 mg/kg,more than 90%
same,inhibition by average photon emission,"[4]; 10 mg/kg every four days x5, day 31",More than 95%
same,inhibition by tumor weight,"[4]; 10 mg/kg every four days x5, day 43",Significant inhibition was still observed
same,tumor growth inhibited,[4]; 10 mg/kg,more than 90%
same,inhibition at average tumor weight,[4]; [7],90%
same,inhibition by average photon emission,[4]; [7],More than 95%
same,average percentage of dead areas in a tumor mass,"[4]; 15 mg/kg, day 31, H&E staining",65%±7.4
same,RON expression in treated tumors,"[4]; 15 mg/kg, day 31, Western blot, control 100%",16.44%±5.75
same,tumor growth inhibited,[4]; 15 mg/kg,more than 90%
same,IC50 dose (dose achieving 50% tumor inhibition),"[4]; multi-dose, average photons at day 31",5.01 mg/kg
same,inhibition by average bioluminescence intensity,"[4]; single dose 20 mg/kg, day 16",More than 95%
same,inhibition rate by average tumor weight,"[4]; single dose 20 mg/kg, day 28",50.98%
same,duration of tumor growth delay,[5],up to 20 days
same,duration of efficacy without signs of tumor regrowth,[5]; day 4 to day 16,up to 12 days
same,combination effect with chemotherapeutics on PDAC cell viability,[6],synergistic effect
